Patent US20170226211A1

Molecular target: Cynomolgus/Rhesus CTLA-4 (cynomolgus/rhesus)
Assay: ELISA, antibody coated, Cynomolgus/Rhesus CTLA-4 titrated

EC50 (read off the curve): 0.2 nM
Substance: Ipilimumab (antibody)
